Test results: US20240279281A1, “Peptide Inhibitors of Interleukin-23 Receptor” (Janssen Pharmaceutica NV, priority 2023, published 2024)
Starred links: 1 amine or outer side, 2 acyl side, 3 side chain; linkers in the order of their positions; H or OH if unused. Positions of bridges follow the written chain, without caps; N, C: chain ends. Non-standard residues stand in square brackets, D forms with d. No end group written: not given here. X3 = 4‑(2-(4-(2-amino-2-carboxyethyl)phenoxy)ethyl)‑4‑methylmorpholin‑4‑ium, C[N+]1(CCOc2ccc(CC(N[*:1])C(=O)[*:2])cc2)CCOCC1; X6 = 2‑amino‑3‑(4-carbamoyl-1H-imidazol-1-yl)propanoic acid, NC(=O)c1cn(CC(N[*:1])C(=O)[*:2])cn1; 2Nal(6-OH) = N[C@@H](Cc1ccc2cc(O)ccc2c1)C(=O)O; Trp(7-Me) = Cc1cccc2c(C[C@H](N)C(=O)O)c[nH]c12; AEF = NCCOc1ccc(C[C@H](N)C(=O)O)cc1; 3Pal = N[C@@H](Cc1cccnc1)C(=O)O; Pen = CC(C)(S)[C@H](N)C(=O)O; lipid = not defined here; Thp = NC1(C(=O)O)CCOCC1; Sar = CNCC(=O)O

T1: interleukin-23 receptor (IL-23R), Q5VWK5
T1 chain: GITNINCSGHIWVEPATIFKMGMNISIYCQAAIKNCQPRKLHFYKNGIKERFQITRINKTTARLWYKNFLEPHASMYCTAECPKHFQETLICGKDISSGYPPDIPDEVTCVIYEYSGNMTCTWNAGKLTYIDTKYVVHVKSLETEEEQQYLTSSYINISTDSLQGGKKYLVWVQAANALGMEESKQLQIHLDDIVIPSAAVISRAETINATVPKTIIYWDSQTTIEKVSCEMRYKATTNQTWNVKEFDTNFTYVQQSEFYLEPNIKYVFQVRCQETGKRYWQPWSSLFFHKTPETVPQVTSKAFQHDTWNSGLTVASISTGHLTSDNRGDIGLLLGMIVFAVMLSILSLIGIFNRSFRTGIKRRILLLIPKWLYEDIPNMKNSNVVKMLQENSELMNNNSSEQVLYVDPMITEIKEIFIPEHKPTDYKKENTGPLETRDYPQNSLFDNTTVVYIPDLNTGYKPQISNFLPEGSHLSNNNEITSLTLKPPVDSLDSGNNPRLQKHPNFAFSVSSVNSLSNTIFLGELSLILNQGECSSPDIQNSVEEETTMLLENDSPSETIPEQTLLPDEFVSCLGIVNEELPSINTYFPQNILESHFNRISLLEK

B1: SEQ ID NO: 395 (peptide)
peptide: K[Pen]ET[Trp(7-Me)]K(Ac)[Pen][2‑amino‑3‑(4-(2-aminoethoxy)phenyl)propanoic acid][2‑amino‑3‑(6-hydroxynaphthalen-2-yl)propanoic acid][Thp]EN[3Pal][Sar]
modifications: not fully specified (residue 1, bridges); ends and bridges not checked; also: Lys1: lipidated lysine, lipid not given here
B2: SEQ ID NO: 80 (peptide)
peptide: [Pen]NT[Trp(7-Me)]K(Ac)[Pen][2‑amino‑3‑(4-(2-aminoethoxy)phenyl)propanoic acid][2‑amino‑3‑(6-hydroxynaphthalen-2-yl)propanoic acid][Thp]KN[3Pal][Sar]
modifications: not fully specified (bridges); ends and bridges not checked; also: K10: lipidated lysine, lipid not given here
B3: SEQ ID NO: 427 (peptide)
peptide: K[Pen]NT[Trp(7-Me)]K(Ac)[Pen][2‑amino‑3‑(4-(2-aminoethoxy)phenyl)propanoic acid][2‑amino‑3‑(6-hydroxynaphthalen-2-yl)propanoic acid][Thp]K(Ac)N[3Pal][Sar]
modifications: not fully specified (residue 1, bridges); ends and bridges not checked; also: Lys1 lipidated (lipid not given here)
B4: SEQ ID NO: 420 (peptide)
peptide: R[Pen]ET[Trp(7-Me)]K(Ac)[Pen][AEF][2Nal(6-OH)][Thp]KN[3Pal][Sar]
modifications: not fully specified (bridges); ends and bridges not checked; also: K11: lipidated lysine
B5: SEQ ID NO: 72 (peptide)
peptide: [Pen]NT[Trp(7-Me)]K(Ac)[Pen][AEF][2Nal(6-OH)][Thp]K(Ac)N[3Pal][Sar]K
modifications: not fully specified (bridges); ends and bridges not checked; also: K14: lipidated lysine, lipid not given here
B6: SEQ ID NO: 267 (peptide)
peptide: [Pen]NT[Trp(7-Me)]K(Ac)[Pen][2‑amino‑3‑(4-(2-aminoethoxy)phenyl)propanoic acid][2‑amino‑3‑(6-hydroxynaphthalen-2-yl)propanoic acid][Thp]K(Ac)N[3Pal][Sar]K
modifications: disulfide 1-6 (inferred); not fully specified (residue 14); ends not checked; also: K14: lipidated lysine
B7: SEQ ID NO: 425 (peptide)
peptide: R[Pen]KT[Trp(7-Me)]K(Ac)[Pen][AEF][2Nal(6-OH)][Thp]EN[3Pal][Sar]
modifications: not fully specified (residue 3, bridges); ends and bridges not checked; also: K3: lipidated lysine
B8: SEQ ID NO: 423 (peptide)
peptide: K[Pen]ET[Trp(7-Me)]K(Ac)[Pen][AEF][2Nal(6-OH)][Thp]K(Ac)N[3Pal][Sar]
modifications: not fully specified (bridges); ends and bridges not checked; also: lipidated Lys1, lipid not given here
B9: SEQ ID NO: 268 (peptide)
peptide: K[Pen]NT[Trp(7-Me)]K(Ac)[Pen][2‑amino‑3‑(4-(2-aminoethoxy)phenyl)propanoic acid][2‑amino‑3‑(6-hydroxynaphthalen-2-yl)propanoic acid][Thp]EN[3Pal][Sar]
modifications: disulfide 2-7 (inferred); not fully specified (residue 1); ends not checked; also: K1: lipidated lysine
B10: SEQ ID NO: 269 (peptide)
peptide: R[Pen]NT[Trp(7-Me)]K(Ac)[Pen][2‑amino‑3‑(4-(2-aminoethoxy)phenyl)propanoic acid][2‑amino‑3‑(6-hydroxynaphthalen-2-yl)propanoic acid][Thp]EN[3Pal][Sar]K
modifications: disulfide 2-7 (inferred); not fully specified (residue 15); ends not checked; also: K15: lipidated lysine
B11: SEQ ID NO: 81 (peptide)
peptide: [Pen]NT[Trp(7-Me)]K[Pen][2‑amino‑3‑(4-(2-aminoethoxy)phenyl)propanoic acid][2‑amino‑3‑(6-hydroxynaphthalen-2-yl)propanoic acid][Thp]K(Ac)N[3Pal][Sar]
modifications: not fully specified (bridges); ends and bridges not checked; also: K5: lipidated lysine, lipid not given here

Target: T1, interleukin-23 receptor (IL-23R), Q5VWK5
Assay: cell-based or functional assay

| Binder | PBMC pSTAT3 IC50 [nM] | IL23R Reporter Assay IC50 [nM] |
| --- | --- | --- |
| B1 | < 1 |  |
| R[Pen]NT[Trp(7-Me)]K(Ac)[Pen][2‑amino‑3‑(4-(2-aminoethoxy)phenyl)propanoic acid][3‑(6-(1H-pyrazol-4-yl)naphthalen-2-yl)‑2‑aminopropanoic acid][Thp]EN[Thp] (not fully specified (bridges); ends and bridges not checked) [SEQ ID NO: 433] | > 1 |  |
| B2 |  | < 10 |
| B3 | < 1 |  |
| B4 | < 0.1 |  |
| B5 |  | < 10 |
| R[Pen]NT[Trp(7-Me)]K(Ac)[Pen][2‑amino‑3‑(4-(2-aminoethoxy)phenyl)propanoic acid][2‑amino‑3‑(6-(3-(trifluoromethyl)-1H-pyrazol-4-yl)naphthalen-2-yl)propanoic acid][Thp]EN[Thp] (not fully specified (bridges); ends and bridges not checked) [SEQ ID NO: 434] | > 1 |  |
| B6 | < 1 |  |
| R[Pen]ET[Trp(7-Me)]K(Ac)[Pen][AEF][2Nal(6-OH)][Thp]K(Ac)N[3Pal][Sar] (not fully specified (bridges); ends and bridges not checked) [SEQ ID NO: 421] | < 1 |  |
| B7 | < 1 |  |
| B8 | < 1 |  |
| B9 | < 1 |  |
| [Pen]NT[Trp(7-Me)]K(Ac)[Pen][2‑amino‑3‑(4-(2-aminoethoxy)phenyl)propanoic acid][2‑amino‑3‑(6-hydroxynaphthalen-2-yl)propanoic acid][Thp]K(Ac)N[3Pal][Sar]K(lipid) (disulfide 1-6 (inferred); ends not checked; also: K14: lipidated lysine) [SEQ ID NO: 277] | < 1 |  |
| R[Pen]NTWK(Ac)[Pen][X3][2Nal(6-OH)][Thp]EN[3Pal][Sar] (not fully specified (bridges); ends and bridges not checked) [SEQ ID NO: 73] |  | < 10 |
| B10 | < 1 |  |
| [Pen]NT[Trp(7-Me)]K(Ac)[Pen][5‑(4-(2-amino-2-carboxyethyl)phenoxy)‑N,N,N‑trimethylpentan‑1‑aminium][2Nal(6-OH)][Thp]EN[3Pal][Sar] (not fully specified (bridges); ends and bridges not checked) [SEQ ID NO: 75] |  | < 10 |
| [Pen]NT[Trp(7-Me)]K(Ac)[Pen][2‑amino‑3‑(4-(2-aminoethoxy)phenyl)propanoic acid][2‑amino‑3‑(6-hydroxynaphthalen-2-yl)propanoic acid][Thp]K(Ac)N[3Pal][Sar]K(lipid) (disulfide 1-6 (inferred); ends not checked; also: K14: lipidated lysine) [SEQ ID NO: 271] | < 1 |  |
| B11 |  | < 10 |
| R[Pen]NT[Trp(7-Me)]K(Ac)[Pen][AEF][2Nal(6-OH)][Thp]EN[X6][Sar] (not fully specified (bridges); ends and bridges not checked) [SEQ ID NO: 419] | < 0.1 |  |
| R[Pen]NT[Trp(7-Me)]K(Ac)[Pen][N,N,N‑trimethylethanaminium][2‑amino‑3‑(6-hydroxynaphthalen-2-yl)propanoic acid][Thp]EN[3Pal][Sar] (disulfide 2-7 (inferred); not fully specified; ends not checked) [SEQ ID NO: 435] | < 0.1 |  |
| R[Pen]NT[Trp(7-Me)]K(Ac)[Pen][N,N,N‑trimethylethanaminium][2‑amino‑3‑(6-hydroxynaphthalen-2-yl)propanoic acid][Thp]EN[3Pal][Sar] (disulfide 2-7 (inferred); not fully specified; ends not checked) [SEQ ID NO: 436] | < 1 |  |
